IntAct's records for PubMed 23022437

B1: Sodium channel protein type 7 subunit alpha (Mus musculus), B1AYL1 (parent)
chain: MLTSPEPKGLVPFTTESLELIENHIAKKCNEDPEEEEGLKPSRNLEAGKRLPIPYGTLPRGTVSEPLEDVDPYYYVKRNTFMVLNRSRVIFRFNAVSIFCTLSPLNSLRRAAIKALVHPLFRLLILISVLTDSILMCMSNLPEWILAIENTLLGIYAFEILVKVIARGIWAGSFSFLGDLWNWLDFSVTLFELITRFSPLSSFLMLKTIRTFRILKIIPLNHGLQSIVMTLAQCLKKLFGAIALALFFLAVFSLLGMGLFMGNLKHKCLRWPEENENETLHNRTGSLNYSPERINFYYMEGAKYALLCGNRTDAGQCPEGYVCVKEGTNPDNGFTSFDNFGWSLLAMFRLMTQDYPELLYHQILYASGKVYMIFFVMISFWFAFYLTSLFLGILTMTYEKEKQRACEESGGLDPKCQQTVKELDEENDAAEMETTQIEMKKRSPTSINTTLDILEDTTLGHREEPETSRKKCPICWHKFIKTCFIWKCSPCWVKLNEFADRVITHPLADLFLVICIVLNICFLALEHFPMSEELRSLLHVGNLVFIGIYTIEMILKIIAMHPYGYFQISWNIFDSILVVLELTEILLADVEGLAVLITVPLIFIKLGKYGPPFKSLMRILGSSLMALKDLVLLLCIFVYFSAVFGMKLFGRSYKDCVCHIKEDCQPQRWHMSDFLHAYMTVFRILCGEWIETLWECMEVAGQAWCIPFYMMVILIGNLLILYLFVTLVSSFSYYDATSEVNKEAKNLQLAMARIKSGINSMLLKLMCTERSVPTEATDQICDPSVKENISGHTLSELSNTQTFLRYKDQSSSTEKTPVTESESQSLIASPSASETVPIASGESDIENLDNKETRSKSGNGGSKEKMKQSSSSECSTVDIAISEEEEMVYEHEKSKLHKNGYERKSSTGQISRESRNGKIWKNIRKTCCKIVENSWFECFIGLVTLLCTGTLALEDIYIDQRKTTKILLEYADMIFAYIFILEMLLKWVAYGFKAFFSNNWYKLDFMVVIVFCLSLIGKTREDLNPLTSIKFLRALRVLSQFERMKVVLRALIKTTLPTVSVFLVCLMIWLLFSVIGVQLFAGKFYECIDPTKGERFPVFEVMNKSQCEKLLFNESMPWENAKLNFDNVGNGFLSLLQVATFNGWISIMNSAIDSVGVNMQPSFEYNLYMYSYFIIFVIFGLFLPLCMLIGVIIRNFNKQKIKQGGSNIFITVKQKKQYRALKKLLYADVQKPTPRPRNKFQGFLFDLVTHRVFNVIIILLICFQATTIMIQKDEQSPQMETAIFWMNSIFVMLFTLECILKLTAFRCHYFTSAWNVHDFMVVIFSITGLLLPLTIGQYFVPPSLVQLILLSRVIHILRPGKGPKVFHDLMLPLILALPALLNISLLIFLVMFIYAIFGMYNFAYVKKEAGINDVSNFETFGSSMLCLFQVTTFSGWDGMLDAIFNSQWSDCDPDKINPGTQVKGDCGSPSVGISYFVSYILISWLIIVNMYIVLIMEFLSIPSQKKSRTLSEDDFRRFFRVWNRFDPDRTQYIDSSKLSDFAAALDPPLFMAKPNKGQLVAMDLPMAAGDRIHCLDILLAFTKRVMGKDERVEKILSEIESGFMLANPFKITYEPITTTLKRKQEAVSATIIQRAYKSYRLRQNDKNVSDTPAIDDRRDDLTSKGAHSGKIEEKASIQTQI

Variants of: B1
Conditions: with dlg1_mouse Dlg1, Q811D0
Chain of dlg1_mouse Dlg1, Q811D0 (Q811D0 whole entry): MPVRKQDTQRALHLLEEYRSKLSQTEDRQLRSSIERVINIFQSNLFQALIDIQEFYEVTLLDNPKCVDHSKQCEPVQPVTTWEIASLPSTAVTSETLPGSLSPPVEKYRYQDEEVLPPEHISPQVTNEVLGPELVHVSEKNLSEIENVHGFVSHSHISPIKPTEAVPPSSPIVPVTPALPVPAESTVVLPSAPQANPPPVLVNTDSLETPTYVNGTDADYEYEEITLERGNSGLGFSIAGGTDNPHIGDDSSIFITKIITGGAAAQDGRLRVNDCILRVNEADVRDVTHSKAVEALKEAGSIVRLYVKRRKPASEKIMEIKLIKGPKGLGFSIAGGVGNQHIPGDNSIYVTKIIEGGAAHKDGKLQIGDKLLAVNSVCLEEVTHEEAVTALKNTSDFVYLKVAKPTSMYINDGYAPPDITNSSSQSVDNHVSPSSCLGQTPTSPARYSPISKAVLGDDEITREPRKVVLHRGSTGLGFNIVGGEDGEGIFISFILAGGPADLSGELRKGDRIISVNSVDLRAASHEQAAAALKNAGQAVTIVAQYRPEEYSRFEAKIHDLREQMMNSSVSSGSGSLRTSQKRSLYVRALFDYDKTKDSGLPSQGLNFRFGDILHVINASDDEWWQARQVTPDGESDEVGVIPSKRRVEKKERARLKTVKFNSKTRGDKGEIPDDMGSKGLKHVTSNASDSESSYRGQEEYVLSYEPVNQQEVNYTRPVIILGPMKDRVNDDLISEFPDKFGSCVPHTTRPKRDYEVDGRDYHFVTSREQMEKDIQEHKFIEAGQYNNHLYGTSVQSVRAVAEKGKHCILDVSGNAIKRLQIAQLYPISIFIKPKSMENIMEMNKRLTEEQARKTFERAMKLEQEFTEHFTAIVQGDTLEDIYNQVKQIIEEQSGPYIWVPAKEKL

Row | Variant | effect of a mutation on the interaction
1 | T1679A | disrupting interaction

Variants of: B1
Conditions: with dlg1_rat Dlg1, Q62696
Chain of dlg1_rat Dlg1, Q62696 (Q62696 whole entry): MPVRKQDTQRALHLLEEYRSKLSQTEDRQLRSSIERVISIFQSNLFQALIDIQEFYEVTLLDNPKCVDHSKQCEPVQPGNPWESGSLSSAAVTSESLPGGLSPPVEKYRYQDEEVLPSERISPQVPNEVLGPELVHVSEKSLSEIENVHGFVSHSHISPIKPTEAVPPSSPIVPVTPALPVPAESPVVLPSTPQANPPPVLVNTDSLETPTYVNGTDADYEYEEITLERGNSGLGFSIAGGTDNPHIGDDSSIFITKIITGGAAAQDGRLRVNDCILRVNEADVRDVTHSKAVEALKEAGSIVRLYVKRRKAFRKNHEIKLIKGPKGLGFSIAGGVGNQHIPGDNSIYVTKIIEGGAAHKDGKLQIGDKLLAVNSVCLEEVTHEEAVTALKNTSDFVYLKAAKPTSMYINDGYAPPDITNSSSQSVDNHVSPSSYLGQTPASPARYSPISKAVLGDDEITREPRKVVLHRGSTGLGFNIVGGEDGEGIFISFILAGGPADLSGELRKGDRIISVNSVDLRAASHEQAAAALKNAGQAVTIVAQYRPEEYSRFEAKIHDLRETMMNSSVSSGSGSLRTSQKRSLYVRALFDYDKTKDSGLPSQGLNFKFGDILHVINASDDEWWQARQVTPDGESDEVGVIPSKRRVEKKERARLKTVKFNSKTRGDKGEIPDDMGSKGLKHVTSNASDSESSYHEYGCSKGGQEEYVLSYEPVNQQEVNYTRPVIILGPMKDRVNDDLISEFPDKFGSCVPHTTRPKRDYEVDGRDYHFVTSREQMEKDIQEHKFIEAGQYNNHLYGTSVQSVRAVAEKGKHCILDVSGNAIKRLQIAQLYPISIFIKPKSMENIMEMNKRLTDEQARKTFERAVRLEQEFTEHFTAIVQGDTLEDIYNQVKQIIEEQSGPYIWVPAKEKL

Row | Variant | effect of a mutation on the interaction
2 | T1679A | disrupting interaction
